According to the nanobody polyreactivity screen of Harvey et al. (2022):

assay: yeast display, Sf9 membrane polyspecificity reagent, FACS + sequencing; frameworks hold sequencing errors
Outline: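 Galactose-induced (36–48 hours) yeast carrying a synthetic nanobody display library were exposed to 10% biotinylated, detergent-solubilized Sf9 membrane reagent at 4 °C for 1 hour. FACS followed streptavidin microbead enrichment, using low and high (top ~1%) gates for expression (anti-HA) and reagent binding (streptavidin). Colony PCR, MiSeq 2 × 250 sequencing and CDR-length filtering followed. Labels for polyreactivity reflect the gate of origin.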

Row | Sequence | polyreactivity (PSR sort gate)
1 | QVQLVESGGGLVQAGGSLRLSCAASGRTLRYYAMGWYRQAPGKERELVAAITKSGGSTYYADSVKGRFTISRDNAKNTVYLQMTSLKPEDTAVYYCNKVTYSRAQYIGGDGYYWGQGTQVTVSS | high polyreactivity
2 | QVQLVESGGGLVQAGGSLRLSCAASGRTLSFYAMGWYRQAPGKERELVASISSGGRTYYADSVKGRFTISRDNAKNTVYLQMNSLKPEDTAVYYCAVGYRSRYRSRDDYWGQGTQVTVSS | high polyreactivity
3 | QVQLVESGGGLVQAGGSLRLSCAASGRTLSIYAMGMYRQAPGKEMELVASISSSGGRTDYADSVKGRFTISRDNAKYTVYLQMNSLKPEDTAVYYCAADGGYYYPYRGYHKYYYWGQGTLVTVSS | low polyreactivity
4 | QVQLVESGGGLVQAGGSLRLSCAASGRTLSRYAMGWYRQAPGKEREFVAGISASGGRTYYADSVKGRFTISRDNAKNTVYLQMNSLKPEDTAVYYCAAQLPWAGGKYDYWGQGTQVTVSS | high polyreactivity
5 | QVQLVESGGGLVQAGGSLRLSCAASGRTLSTNGMGWYRQAPGKERELVATITRRGGRTYYADSVKGRFTISRDNAKNTVYLQMNSLKPEDTAVYYCATEQADRRVTYKYWGQGTQVTVSS | high polyreactivity
6 | QVQLVESGGGLVQAGGSLRLSCAASGRTLSYYARGWYRQAPGKERELVASIRRRTGSTYYAESVKGRFTISRDNAKNSVYLQMNSLTPEDTAVYYCAADLIYYGEYDYWGQGTQVTVSS | high polyreactivity
7 | QVQLVESGGGLVQAGGSLRLSCAASGRTLTKYVMGWYRQAPGKEREFVAAISSSGDSTYYADSVKGRFTISRDNAKNPVYLQMNSLKQEDTAVYYCAKYDRNTYCYWGQCTQVTVSS | low polyreactivity
8 | QVQLVESGGGLVQAGGSLRLSCAASGRTLTSNAMGWYRQAPGKERELVASITGSSSNTYYADSVKGRFTISRDNAKNTVYLQMNSLKPEDTAVYYCAAEVGFPWWRLDEYWGQGTQVTVSS | low polyreactivity
9 | QVQLVESGGGLVQAGGSLRLSCAASGRTLVKYAMGRYRPAPGKERELVAALTQRGGITYYADSVKGRFTISRDNAKNTVYLQMNSLKPEDTAVYYCAASLYSYRSPYTFYYWGQGTQVTVSS | high polyreactivity
10 | QVQLVESGGGLVQAGGSLRLSCAASGRTLVRNVMGWYRQAPGKERELVAAISRSGGSTYYADSVKGRFTISRDNAKNTVYLQMNSLKPEDTAVYYCAAATKSNGAPIFDSWGQGTQVTVSS | high polyreactivity
11 | QVQLVESGGGLVQAGGSLRLSCAASGRTLVVNDMGWYRQAPGKERELVADINWSGGRTYYADSVKGRFTISRDNAKNTVYLQMNSLKPEDTAVYYCAADLSWRQYYREYDYWGQGTEVTVSS | high polyreactivity
12 | QVQLVESGGGLVQAGGSLRLSCAASGRTLVYYAMGWYRQAPGKERELVAAITSVGSTNYADSVKGRFTISRDNAKNTVYLQMNSLKPEDTAVYYCAADRTYRFYYTQGYEYWGQGTQVTVSS | low polyreactivity
13 | QVQLVESGGGLVQAGGSLRLSCAASGRTLWWYAMAWYRQAPGKERELVAAIDYSDGNTYYADSVKGRFTISRDNAKNTVYLQMNSLKPEDTAVYYCAAEGYYNYGSYYWGQGTQVTVSS | high polyreactivity
14 | QVQLVESGGGLVQAGGSLRLSCAASGRTLWYYTMGWYRQAPGKERELVADITRGTSTNYADSVKGRFTISRDNAKNTVYLQMNSLKPEDTAVYYCNRAHGRSRYSRDYDSWGQGTQVTVSS | low polyreactivity
15 | QVQLVESGGGLVQAGGSLRLSCAASGRTLYFNAMAWYRQEPGKERELVADISIGGSTYYADSVKGRFTISRDNAKNTVYLQMNSLKPEDTAVYYLATDYLGGGKRYYYWGQGTQVTVSS | high polyreactivity
16 | QVQLVESGGGLVQAGGSLRLSCAASGRTLYFNAMGWYRQAPGKERELVADISIGGSTYYADSVKGRFTISRDNAKNTVYLQMNSLKPEDTAVYYCAANAHYYVSYAWYVDVDYWGQGTQVTVSS | high polyreactivity
